Laboratory results reported in US20050112126A1 (Genentech, published 2005).
Numbering of substitutions follows the chain as printed.

B1: pY0192 VH A61S (Fab, V domains shown)
VH: EVQLVESGGGLVQPGGSLRLSCAASGYTFTNYGINWVRQAPGKGLEWVGWINTYTGEPTYSADFKRRFTFSLDTSKSTAYLQMNSLRAEDTAVYYCAKYPHYYGSSHWYFDVWGQGTL
VL: DIQLTQSPSSLSASVGDRVTITCRANEQLSNYLNWYQQKPGKAPKVLIYFTSSLHSGVPSRFSGSGSGTDFTLTISSLQPEDFATYYCQQYSTVPWTFGQGTKVEIKR
notes: Ala-scan variant of pY0192; Fab on phage
B2: pY0192 VH F29A (Fab, V domains shown)
VH: B1 VH with F29A, S61A
VL: B1 VL
notes: as for B1
B3: pY0192 VH P58A (Fab, V domains shown)
VH: B1 VH with P58A, S61A
VL: B1 VL
notes: as for B1
B4: pY0192 VH G104A (Fab, V domains shown)
VH: B1 VH with S61A, G104A
VL: B1 VL
notes: as for B1
B5: pY0192 VH T53A (Fab, V domains shown)
VH: B1 VH with T53A, S61A
VL: B1 VL
notes: as for B1
B6: pY0192 VH H101A (Fab, V domains shown)
VH: B1 VH with S61A, H101A
VL: B1 VL
notes: as for B1
B7: pY0192 VH D63A (Fab, V domains shown)
VH: B1 VH with S61A, D63A
VL: B1 VL
notes: as for B1
B8: pY0192 VH A62S (Fab, V domains shown)
VH: B1 VH with S61A, A62S
VL: B1 VL
notes: as for B1
B9: pY0192 VH G56A (Fab, V domains shown)
VH: B1 VH with G56A, S61A
VL: B1 VL
notes: as for B1
B10: pY0192 VH T55A (Fab, V domains shown)
VH: B1 VH with T55A, S61A
VL: B1 VL
notes: as for B1
B11: pY0192 VH Y102A (Fab, V domains shown)
VH: B1 VH with S61A, Y102A
VL: B1 VL
notes: as for B1
B12: pY0192 VH F110A (Fab, V domains shown)
VH: B1 VH with S61A, F110A
VL: B1 VL
notes: as for B1
B13: pY0192 VH G33A (Fab, V domains shown)
VH: B1 VH with G33A, S61A
VL: B1 VL
notes: as for B1
B14: pY0192 VH Y54A (Fab, V domains shown)
VH: B1 VH with Y54A, S61A
VL: B1 VL
notes: as for B1
B15: pY0192 VH Y109A (Fab, V domains shown)
VH: B1 VH with S61A, Y109A
VL: B1 VL
notes: as for B1
B16: pY0192 VH I51A (Fab, V domains shown)
VH: B1 VH with I51A, S61A
VL: B1 VL
notes: as for B1
B17: pY0192 VH T28A (Fab, V domains shown)
VH: B1 VH with T28A, S61A
VL: B1 VL
notes: as for B1
B18: pY0192 VH G26A (Fab, V domains shown)
VH: B1 VH with G26A, S61A
VL: B1 VL
notes: as for B1
B19: pY0192 VH R66A (Fab, V domains shown)
VH: B1 VH with S61A, R66A
VL: B1 VL
notes: as for B1
B20: pY0192 VH P100A (Fab, V domains shown)
VH: B1 VH with S61A, P100A
VL: B1 VL
notes: Ala-scan variant of pY0192; Fab on phage; also called P1OOA
B21: pY0192 VH I34A (Fab, V domains shown)
VH: B1 VH with I34A, S61A
VL: B1 VL
notes: as for B1
B22: pY0192 VH T30A (Fab, V domains shown)
VH: B1 VH with T30A, S61A
VL: B1 VL
notes: as for B1
B23: pY0192 VH Y27A (Fab, V domains shown)
VH: B1 VH with Y27A, S61A
VL: B1 VL
notes: as for B1
B24: pY0192 VH D111A (Fab, V domains shown)
VH: B1 VH with S61A, D111A
VL: B1 VL
notes: as for B1
B25: pY0192 VH S105A (Fab, V domains shown)
VH: B1 VH with S61A, S105A
VL: B1 VL
notes: as for B1
B26: pY0192 VH F64A (Fab, V domains shown)
VH: B1 VH with S61A, F64A
VL: B1 VL
notes: as for B1
B27: pY0192 VH E57A (Fab, V domains shown)
VH: B1 VH with E57A, S61A
VL: B1 VL
notes: as for B1
B28: pY0192 VH Y60A (Fab, V domains shown)
VH: B1 VH with Y60A, S61A
VL: B1 VL
notes: as for B1
B29: pY0192 VH H107A (Fab, V domains shown)
VH: B1 VH with S61A, H107A
VL: B1 VL
notes: as for B1
B30: pY0192 VH Y103A (Fab, V domains shown)
VH: B1 VH with S61A, Y103A
VL: B1 VL
notes: as for B1
B31: pY0192 VH N35A (Fab, V domains shown)
VH: B1 VH with N35A, S61A
VL: B1 VL
notes: as for B1
B32: pY0192 VH T59A (Fab, V domains shown)
VH: B1 VH with T59A, S61A
VL: B1 VL
notes: as for B1
B33: pY0192 VH K65A (Fab, V domains shown)
VH: B1 VH with S61A, K65A
VL: B1 VL
notes: as for B1

Target: T1, VEGF (human, UniProt P15692-4 27-191, limits assumed)
T1 construct: Biotinylated in the KDR-IgG ELISA, amine-coupled to the chip in BIAcore; also called biotinylated VEGF; vascular endothelial growth factor
T1 sequence (P15692 other isoform, or with tags, fused parts or gaps limits assumed): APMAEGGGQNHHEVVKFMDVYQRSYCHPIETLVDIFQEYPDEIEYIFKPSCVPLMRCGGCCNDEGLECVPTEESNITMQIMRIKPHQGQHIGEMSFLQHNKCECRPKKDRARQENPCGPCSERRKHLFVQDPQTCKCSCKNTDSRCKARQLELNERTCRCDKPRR
Assay: competitive phage-ELISA, relative to pY0192
Description: In such an assay, phages were first serially diluted to determine a fractional saturation titer which was then held constant and used to incubate with varying concentrations of VEGF (starting at 200 nM to 0 nM) in solution. The mixture was then transferred onto plate precoated with VEGF (2 μg/mL) and blocked with 5% instant milk, and allowed to equilibrate for 1 hour at room temperature. Thereafter, the phage solution was removed and the remaining bound phages were detected with a solution of rabbit anti-phage antibody mixed with goat anti-rabbit conjugate of horse radish peroxidase. After an hour incubation at room temperature, the plate was developed with a chromogenic substrate, o-phenylenediamine (Sigma). The reaction was stopped with addition of ½ volume of 2.5 M H₂SO₄. Optical density at 492 nm was measured on a spectrophotometric plate reader.
IC50's were determined in a competitive phage-ELISA assay.

Row | Binder | IC50 (mut)/IC50 (wt)
1 | B1 | 1 ratio
2 | B2 | 16 ratio
3 | B3 | 1 ratio
4 | B4 | 2 ratio
5 | B5 | 9 ratio
6 | B6 | 4 ratio
7 | B7 | 1 ratio
8 | B8 | 1 ratio
9 | B9 | 1 ratio
10 | B10 | 4 ratio
11 | B11 | 4 ratio
12 | B12 | 25 ratio
13 | B13 | 6 ratio
14 | B14 | 9 ratio
15 | B15 | 19 ratio
16 | B16 | 4 ratio
17 | B17 | 1 ratio

Row | Binder | IC50 (mut)/IC50 (wt)
18 | B18 | 2 ratio
19 | B19 | 1 ratio
20 | B20 | 38 ratio
21 | B21 | 6 ratio
22 | B22 | 1 ratio
23 | B23 | 34 ratio
24 | B24 | 2 ratio
25 | B25 | 1 ratio
26 | B26 | 1 ratio
27 | B27 | 2 ratio
28 | B28 | 2 ratio
29 | B29 | 2 ratio
30 | B30 | 5 ratio
31 | B31 | 66 ratio
32 | B32 | 3 ratio
33 | B33 | 1 ratio
